B1: BmrA D572A (natural protein, Bacillus subtilis strain 168, UniProt O06967 1-589, looked up)
chain: MPTKKQKSKSKLKPFFALVRRTNPSYGKLAFALALSVVTTLVSLLIPLLTKQLVDGFSMSNLSGTQIGLIALVFFVQAGLSAYATYALNYNGQKIISGLRELLWKKLIKLPVSYFDTNASGETVSRVTNDTMVVKELITTHISGFITGIISVIGSLTILFIMNWKLTLLVLVVVPLAALILVPIGRKMFSISRETQDETARFTGLLNQILPEIRLVKASNAEDVEYGRGKMGISSLFKLGVREAKVQSLVGPLISLVLMAALVAVIGYGGMQVSSGELTAGALVAFILYLFQIIMPMGQITTFFTQLQKSIGATERMIEILAEEEEDTVTGKQIENAHLPIQLDRVSFGYKPDQLILKEVSAVIEAGKVTAIVGPSGGGKTTLFKLLERFYSPTAGTIRLGDEPVDTYSLESWREHIGYVSQESPLMSGTIRENICYGLERDVTDAEIEKAAEMAYALNFIKELPNQFDTEVGERGIMLSGGQRQRIAIARALLRNPSILMLDEATSSLDSQSEKSVQQALEVLMEGRTTIVIAHRLSTVVDADQLLFVEKGEITGRGTHHELMASHGLYRAFAEQQLKMNADLENKAG
notes: BmrA of Bacillus subtilis strain 168, full length, D572 replaced by Ala; source: E. coli, purified in presence of detergent (DDM)
B2: BmrA L569A (natural protein, Bacillus subtilis strain 168, UniProt O06967 1-589, looked up)
chain: MPTKKQKSKSKLKPFFALVRRTNPSYGKLAFALALSVVTTLVSLLIPLLTKQLVDGFSMSNLSGTQIGLIALVFFVQAGLSAYATYALNYNGQKIISGLRELLWKKLIKLPVSYFDTNASGETVSRVTNDTMVVKELITTHISGFITGIISVIGSLTILFIMNWKLTLLVLVVVPLAALILVPIGRKMFSISRETQDETARFTGLLNQILPEIRLVKASNAEDVEYGRGKMGISSLFKLGVREAKVQSLVGPLISLVLMAALVAVIGYGGMQVSSGELTAGALVAFILYLFQIIMPMGQITTFFTQLQKSIGATERMIEILAEEEEDTVTGKQIENAHLPIQLDRVSFGYKPDQLILKEVSAVIEAGKVTAIVGPSGGGKTTLFKLLERFYSPTAGTIRLGDEPVDTYSLESWREHIGYVSQESPLMSGTIRENICYGLERDVTDAEIEKAAEMAYALNFIKELPNQFDTEVGERGIMLSGGQRQRIAIARALLRNPSILMLDEATSSLDSQSEKSVQQALEVLMEGRTTIVIAHRLSTVVDADQLLFVEKGEITGRGTHHELMASHGAYRDFAEQQLKMNADLENKAG
notes: BmrA of Bacillus subtilis strain 168, full length, L569 replaced by Ala; source: E. coli, purified in presence of detergent (DDM)
B3: BmrA E575A (natural protein, Bacillus subtilis strain 168, UniProt O06967 1-589, looked up)
chain: MPTKKQKSKSKLKPFFALVRRTNPSYGKLAFALALSVVTTLVSLLIPLLTKQLVDGFSMSNLSGTQIGLIALVFFVQAGLSAYATYALNYNGQKIISGLRELLWKKLIKLPVSYFDTNASGETVSRVTNDTMVVKELITTHISGFITGIISVIGSLTILFIMNWKLTLLVLVVVPLAALILVPIGRKMFSISRETQDETARFTGLLNQILPEIRLVKASNAEDVEYGRGKMGISSLFKLGVREAKVQSLVGPLISLVLMAALVAVIGYGGMQVSSGELTAGALVAFILYLFQIIMPMGQITTFFTQLQKSIGATERMIEILAEEEEDTVTGKQIENAHLPIQLDRVSFGYKPDQLILKEVSAVIEAGKVTAIVGPSGGGKTTLFKLLERFYSPTAGTIRLGDEPVDTYSLESWREHIGYVSQESPLMSGTIRENICYGLERDVTDAEIEKAAEMAYALNFIKELPNQFDTEVGERGIMLSGGQRQRIAIARALLRNPSILMLDEATSSLDSQSEKSVQQALEVLMEGRTTIVIAHRLSTVVDADQLLFVEKGEITGRGTHHELMASHGLYRDFAAQQLKMNADLENKAG
notes: BmrA of Bacillus subtilis strain 168, full length, E575 replaced by Ala; source: E. coli, purified in presence of detergent (DDM)
B4: BmrA Q577A (natural protein, Bacillus subtilis strain 168, UniProt O06967 1-589, looked up)
chain: MPTKKQKSKSKLKPFFALVRRTNPSYGKLAFALALSVVTTLVSLLIPLLTKQLVDGFSMSNLSGTQIGLIALVFFVQAGLSAYATYALNYNGQKIISGLRELLWKKLIKLPVSYFDTNASGETVSRVTNDTMVVKELITTHISGFITGIISVIGSLTILFIMNWKLTLLVLVVVPLAALILVPIGRKMFSISRETQDETARFTGLLNQILPEIRLVKASNAEDVEYGRGKMGISSLFKLGVREAKVQSLVGPLISLVLMAALVAVIGYGGMQVSSGELTAGALVAFILYLFQIIMPMGQITTFFTQLQKSIGATERMIEILAEEEEDTVTGKQIENAHLPIQLDRVSFGYKPDQLILKEVSAVIEAGKVTAIVGPSGGGKTTLFKLLERFYSPTAGTIRLGDEPVDTYSLESWREHIGYVSQESPLMSGTIRENICYGLERDVTDAEIEKAAEMAYALNFIKELPNQFDTEVGERGIMLSGGQRQRIAIARALLRNPSILMLDEATSSLDSQSEKSVQQALEVLMEGRTTIVIAHRLSTVVDADQLLFVEKGEITGRGTHHELMASHGLYRDFAEQALKMNADLENKAG
notes: BmrA of Bacillus subtilis strain 168, full length, Q577 replaced by Ala; source: E. coli, purified in presence of detergent (DDM)
B5: BmrA R571A (natural protein, Bacillus subtilis strain 168, UniProt O06967 1-589, looked up)
chain: MPTKKQKSKSKLKPFFALVRRTNPSYGKLAFALALSVVTTLVSLLIPLLTKQLVDGFSMSNLSGTQIGLIALVFFVQAGLSAYATYALNYNGQKIISGLRELLWKKLIKLPVSYFDTNASGETVSRVTNDTMVVKELITTHISGFITGIISVIGSLTILFIMNWKLTLLVLVVVPLAALILVPIGRKMFSISRETQDETARFTGLLNQILPEIRLVKASNAEDVEYGRGKMGISSLFKLGVREAKVQSLVGPLISLVLMAALVAVIGYGGMQVSSGELTAGALVAFILYLFQIIMPMGQITTFFTQLQKSIGATERMIEILAEEEEDTVTGKQIENAHLPIQLDRVSFGYKPDQLILKEVSAVIEAGKVTAIVGPSGGGKTTLFKLLERFYSPTAGTIRLGDEPVDTYSLESWREHIGYVSQESPLMSGTIRENICYGLERDVTDAEIEKAAEMAYALNFIKELPNQFDTEVGERGIMLSGGQRQRIAIARALLRNPSILMLDEATSSLDSQSEKSVQQALEVLMEGRTTIVIAHRLSTVVDADQLLFVEKGEITGRGTHHELMASHGLYADFAEQQLKMNADLENKAG
notes: BmrA of Bacillus subtilis strain 168, full length, R571 replaced by Ala; source: E. coli, purified in presence of detergent (DDM)
B6: BmrA F573A (natural protein, Bacillus subtilis strain 168, UniProt O06967 1-589, looked up)
chain: MPTKKQKSKSKLKPFFALVRRTNPSYGKLAFALALSVVTTLVSLLIPLLTKQLVDGFSMSNLSGTQIGLIALVFFVQAGLSAYATYALNYNGQKIISGLRELLWKKLIKLPVSYFDTNASGETVSRVTNDTMVVKELITTHISGFITGIISVIGSLTILFIMNWKLTLLVLVVVPLAALILVPIGRKMFSISRETQDETARFTGLLNQILPEIRLVKASNAEDVEYGRGKMGISSLFKLGVREAKVQSLVGPLISLVLMAALVAVIGYGGMQVSSGELTAGALVAFILYLFQIIMPMGQITTFFTQLQKSIGATERMIEILAEEEEDTVTGKQIENAHLPIQLDRVSFGYKPDQLILKEVSAVIEAGKVTAIVGPSGGGKTTLFKLLERFYSPTAGTIRLGDEPVDTYSLESWREHIGYVSQESPLMSGTIRENICYGLERDVTDAEIEKAAEMAYALNFIKELPNQFDTEVGERGIMLSGGQRQRIAIARALLRNPSILMLDEATSSLDSQSEKSVQQALEVLMEGRTTIVIAHRLSTVVDADQLLFVEKGEITGRGTHHELMASHGLYRDAAEQQLKMNADLENKAG
notes: BmrA of Bacillus subtilis strain 168, full length, F573 replaced by Ala; source: E. coli, purified in presence of detergent (DDM)
B7: BmrA A574V (natural protein, Bacillus subtilis strain 168, UniProt O06967 1-589, looked up)
chain: MPTKKQKSKSKLKPFFALVRRTNPSYGKLAFALALSVVTTLVSLLIPLLTKQLVDGFSMSNLSGTQIGLIALVFFVQAGLSAYATYALNYNGQKIISGLRELLWKKLIKLPVSYFDTNASGETVSRVTNDTMVVKELITTHISGFITGIISVIGSLTILFIMNWKLTLLVLVVVPLAALILVPIGRKMFSISRETQDETARFTGLLNQILPEIRLVKASNAEDVEYGRGKMGISSLFKLGVREAKVQSLVGPLISLVLMAALVAVIGYGGMQVSSGELTAGALVAFILYLFQIIMPMGQITTFFTQLQKSIGATERMIEILAEEEEDTVTGKQIENAHLPIQLDRVSFGYKPDQLILKEVSAVIEAGKVTAIVGPSGGGKTTLFKLLERFYSPTAGTIRLGDEPVDTYSLESWREHIGYVSQESPLMSGTIRENICYGLERDVTDAEIEKAAEMAYALNFIKELPNQFDTEVGERGIMLSGGQRQRIAIARALLRNPSILMLDEATSSLDSQSEKSVQQALEVLMEGRTTIVIAHRLSTVVDADQLLFVEKGEITGRGTHHELMASHGLYRDFVEQQLKMNADLENKAG
notes: BmrA of Bacillus subtilis strain 168, full length, A574 replaced by Val; source: E. coli, purified in presence of detergent (DDM)
B8: BmrA L578A (natural protein, Bacillus subtilis strain 168, UniProt O06967 1-589, looked up)
chain: MPTKKQKSKSKLKPFFALVRRTNPSYGKLAFALALSVVTTLVSLLIPLLTKQLVDGFSMSNLSGTQIGLIALVFFVQAGLSAYATYALNYNGQKIISGLRELLWKKLIKLPVSYFDTNASGETVSRVTNDTMVVKELITTHISGFITGIISVIGSLTILFIMNWKLTLLVLVVVPLAALILVPIGRKMFSISRETQDETARFTGLLNQILPEIRLVKASNAEDVEYGRGKMGISSLFKLGVREAKVQSLVGPLISLVLMAALVAVIGYGGMQVSSGELTAGALVAFILYLFQIIMPMGQITTFFTQLQKSIGATERMIEILAEEEEDTVTGKQIENAHLPIQLDRVSFGYKPDQLILKEVSAVIEAGKVTAIVGPSGGGKTTLFKLLERFYSPTAGTIRLGDEPVDTYSLESWREHIGYVSQESPLMSGTIRENICYGLERDVTDAEIEKAAEMAYALNFIKELPNQFDTEVGERGIMLSGGQRQRIAIARALLRNPSILMLDEATSSLDSQSEKSVQQALEVLMEGRTTIVIAHRLSTVVDADQLLFVEKGEITGRGTHHELMASHGLYRDFAEQQAKMNADLENKAG
notes: BmrA of Bacillus subtilis strain 168, full length, L578 replaced by Ala; source: E. coli, purified in presence of detergent (DDM)
B9: BmrA Q576A (natural protein, Bacillus subtilis strain 168, UniProt O06967 1-589, looked up)
chain: MPTKKQKSKSKLKPFFALVRRTNPSYGKLAFALALSVVTTLVSLLIPLLTKQLVDGFSMSNLSGTQIGLIALVFFVQAGLSAYATYALNYNGQKIISGLRELLWKKLIKLPVSYFDTNASGETVSRVTNDTMVVKELITTHISGFITGIISVIGSLTILFIMNWKLTLLVLVVVPLAALILVPIGRKMFSISRETQDETARFTGLLNQILPEIRLVKASNAEDVEYGRGKMGISSLFKLGVREAKVQSLVGPLISLVLMAALVAVIGYGGMQVSSGELTAGALVAFILYLFQIIMPMGQITTFFTQLQKSIGATERMIEILAEEEEDTVTGKQIENAHLPIQLDRVSFGYKPDQLILKEVSAVIEAGKVTAIVGPSGGGKTTLFKLLERFYSPTAGTIRLGDEPVDTYSLESWREHIGYVSQESPLMSGTIRENICYGLERDVTDAEIEKAAEMAYALNFIKELPNQFDTEVGERGIMLSGGQRQRIAIARALLRNPSILMLDEATSSLDSQSEKSVQQALEVLMEGRTTIVIAHRLSTVVDADQLLFVEKGEITGRGTHHELMASHGLYRDFAEAQLKMNADLENKAG
notes: BmrA of Bacillus subtilis strain 168, full length, Q576 replaced by Ala; source: E. coli, purified in presence of detergent (DDM)

This data set deals with the molecule itself. In words: native gel or EMSA; blue native PAGE of purified BmrA wt and Ala (Val) variants in DDM micelles; 4 to 16% Bis-Tris gel; dimer to monomers.
In the case of B1, the binding result is recorded as “binds”.

Take B2: the binding result is listed as “binds”.

Turning to B3, the binding result was “binds”.

On to B4, for which the binding result was “binds”.

In the case of B5, the binding result is given as “binds”.

B6: the binding result is “binds”.

In the case of B7, the binding result is listed as “binds”.

With B8, the binding result is on record as “binds”.

Take B9: the binding result is “binds”.

The record behind these values is publication PMC11774805, “The C-terminal α-helix is crucial for the activity of the bacterial ABC transporter BmrA” (The Journal of Biological Chemistry, 2024).
